Assay results taken from article PMC9107221 (Journal of Nanobiotechnology, 2022).
Numbering of substitutions follows the chain as printed.

T1: P10-LKIQVSLQIG (Chikungunya virus, SL-CK1)
T1 construct: 10-mer of the Chikungunya/SL-CK1 E2 glycoprotein, residues 46 to 55, domain A
T1 chain: LKIQVSLQIG

T2: P61-GEEPNYQEEW (Chikungunya virus, SL-CK1)
T2 construct: 10-mer of the Chikungunya/SL-CK1 E2 glycoprotein, domain C; printed as residues 331 to 340 in the results and as 301-310 in the discussion
T2 chain: GEEPNYQEEW

B1: Chikungunya/SL-CK1 E2 glycoprotein (natural protein)
chain: not shown
notes: E2 glycoprotein of Chikungunya virus strain SL-CK1, recombinant, about 40 kD on the blot; also called CHIKV E2; E2 protein; source: bought: Sino Biological
B2: MoNb-2E8 (VHH)
VHH: AVQLVESGGGLVQAGGSLRLSCAASGRSFSAYTMAWFRQAPGKEREWMASIVRSGGPTYYADSVKDRFTISRENARNTVYLQMNSLKPEDTAVYYCAADLGWTYSRSRELFGSWGQGTQVTVSS
notes: About 28 kDa with the His-SUMO tag; detected through SUMO (anti-SMT3) or the His tag; also called monovalent VHH antibody Nb-2E8; SUMO-tagged VHH; not shown: His6, N-terminal, kept; SUMO, N-terminal, kept
B3: MoNb-3C5 (VHH)
VHH: B2 VHH with V79A, R108P
notes: About 28 kDa with the His-SUMO tag; detected through SUMO (anti-SMT3) or the His tag; also called monovalent VHH antibody Nb-3C5; SUMO-tagged VHH; not shown: His6, N-terminal, kept; SUMO, N-terminal, kept
B4: 1F1 (Nb-1F1) (VHH)
VHH: B2 VHH with R108P
B5: 2B4 (Nb-2B4) (VHH)
VHH: B2 VHH with F29S, R108P
B6: 2A3 (Nb-2A3) (VHH)
VHH: AVQLVESGGGLVPTGGSLRLSCTASGRTDNLYTVGWFRQAPGKERELIARITEKGGPTYYADSVKGRFSISTHKSKNAIYLQMNSVKPEDTAVYYCVADRGTVYGTREDLYDYWGQGTQVTVSS
B7: 1D1 (Nb-1D1) (VHH)
VHH: AVQLVESGGGLVQAGGSLRLSCEASGHTFSSGTMGWFRQAPGMEREFVARINEKGDGTFYADSVKGRFTISRDYAKNTVYLQMNTLKPEDTAVYYCVADRGTVYGTREDLYDYWGQGTQVTVSS
B8: 4G10 (Nb-4G10) (VHH)
VHH: B7 VHH with S30N, A75T
B9: 1C11 (Nb-1C11) (VHH)
VHH: AVQLVESGGGLVLAGASLRLSCADSGSGRSLGTYGWFRQAPGKEREFVARISQRGGIDYTDSVKGRFTISRDNSKNTVNLQMTTLTPEDTAVYYCAADPDTVYSRSPALWKYWGQGTQVTVSS
B10: 1H3 (Nb-1H3) (VHH)
VHH: AVQLVESGGGLVQAGGSLRLSCAASVHTFTMPTMGWFRQAPGKGRELVARFNANINSTYYGDSVKGRFTISRDFAKNTVYLHMSSLRPEDTAVYYCVADRGVVFGTREDLYDYWGQGTQVTVSS
B11: 4C1 (Nb-4C1) (VHH)
VHH: B10 VHH with G42E, V103F
B12: 1E1 (Nb-1E1) (VHH)
VHH: AVQLVESGGGLVETGESLRLSCAASGRTIENYHVGWFRQTSGPEREFLAATSRGNGISTIADSVKGRFTISRDNAKNTVYLQMNALKPEDTAVYICAADDANFVNYRSYRAWDNWGQGTQVTVSS
B13: 2B5 (Nb-2B5) (VHH)
VHH: B12 VHH with E13Q, T14A, E16G
B14: 1G6 (Nb-1G6) (VHH)
VHH: AVQLVESGGGLVQAGGSLRLSCAASGRTFSTYTMGWFRQAPGKEREFVARIIENTGNIYYADSVKGRFTISEDNAKNTLYLQMNNLKPEDTAVYYCVGDRGAVYGTRPDLYDHWGQGTQVTVSS
B15: 2F7 (Nb-2F7) (VHH)
VHH: AVAGESGGGVVQAGGSLRLSCAASGRTFSPYAMGWFRQAPGKERESVAAISWSAGDTYYADSVKGRFTISRDNAKNTVYLQMNSLKPEDTAVYYCASRNTYFSDSGYSNFYAYDYWGQGTQVTVSS
B16: 3E9 (Nb-3E9) (VHH)
VHH: AVQLVESGGGLVQAGGSLSLSCAASGRTFSAGTMGWFRQAPGKERELIARVIKNGGSTYYTDSVKGRFTIAADFAKSTVYLQMNSLKPEDTALYYCAADRGAVFGTRQELYDDWGQGTQVTVSS
B17: 4C7 (Nb-4C7) (VHH)
VHH: AVQLVESGGGLVQAGGSLRLSCATSGRTLGTYGWFRQAPGKEREFVARFLRNNGLTEYADSVKGRFTISRDDAKNTVELQMIMLKPEDTAVYYCTADPDAVYSRSPALWVYWGQGTQVTVSS
B18: 4F8 (Nb-4F8) (VHH)
VHH: AVQLVESGGGTAQAGGPLRLSCKASGRSFSVGTMAWFRQVPGKEREFLVRDSQKGDGTVYAGSVEGRFTISRDYAKNTMDLQMNSLKPEDTAVYYCAADRGTVYGTREDLYDYWGQGTQVTVSS
B19: 1H7 (Nb-1H7) (VHH)
VHH: AVQLVESGGGLVQAGGSLRISCLASGPPFTDYTMGWFRQAPGKEREFVARITNHGGGTHYADSVKGRFTISRDYATNTVYLQMNSLKPEDTAVYYCAADRGAVYGTREDLYDYWGQGTQVTVSS
B20: 4H6 (Nb-4H6) (VHH)
VHH: B19 VHH with A14P, R19G, L23V, M34L, D73E
B21: 1A12 (Nb-1A12) (VHH)
VHH: AVQLVESGGGLVQAGGSLRLSCAASGRALTSGTMGWFRQAPGKEREFVARANVKGDGTFYADAVKGRFTISRDYAKNTVYLQMNNLKPEDTAVYFCAADRGTVYGTSEDLYDYWGQGTQVTVSS

biological target: T3, TriNb-3C5 (alpaca); test: SPR; LSPR (OpenSPR, Nicoya): E2 protein immobilised on a COOH chip by EDC/NHS, antibodies flowed at 20 uL/min in PBS pH 7.4, 240 s binding, 360 s dissociation, One to One model; settings: both partners purified
T3 construct: VHH Nb-3C5, as the VHH of m2; flexible linker, printed as (GGGGS) x 3; VHH Nb-3C5, second copy, as the VHH of m2; VHH Nb-3C5, third copy, as the VHH of m2; also called trivalent Nb-3C5; homo-trimer Nb-3C5 fused to Fc; source: HEK293 cells, pcDNA 3.4, purified (protein A)

Question: Which Kd does the source give for B1 here?
Answer: Its Kd is 10.4 nM.

biological target: T4, TriNb-2E8 (alpaca); test: as above; settings: both partners purified
T4 construct: VHH Nb-2E8, as the VHH of m1; flexible linker, printed as (GGGGS) x 3; VHH Nb-2E8, second copy, as the VHH of m1; VHH Nb-2E8, third copy, as the VHH of m1; also called trivalent Nb-2E8; homo-trimer Nb-2E8 fused to Fc; source: HEK293 cells, pcDNA 3.4, purified (protein A)

Question: For B1, which Kd is on record?
Answer: Its Kd is 4.52 nM.

biological target: B1; test: as above; settings: both partners purified

Question: How did the Kd turn out when B2 was run?
Answer: The Kd was 101 nM.

Question: For B3, which Kd is on record?
Answer: The Kd was 368 nM.

biological target: T5, BiNb-2E8 (alpaca); test: as above; settings: both partners purified
T5 construct: VHH Nb-2E8, as the VHH of m1; flexible linker, printed as (GGGGS) x 3; VHH Nb-2E8, second copy, as the VHH of m1; Read here as two VHH in tandem on one chain; also called bivalent Nb-2E8; homo-dimer Nb-2E8 fused to Fc; source: HEK293 cells, pcDNA 3.4, purified (protein A)

Question: With B1 as the binder, how does the Kd read?
Answer: Its Kd is 2.59 nM.

biological target: T6, BiNb-3C5 (alpaca); test: as above; settings: both partners purified
T6 construct: VHH Nb-3C5, as the VHH of m2; flexible linker, printed as (GGGGS) x 3; VHH Nb-3C5, second copy, as the VHH of m2; In the sandwich ELISA it was coupled with horseradish peroxidase (HRP Conjugation Kit); also called bivalent Nb-3C5; homo-dimer Nb-3C5 fused to Fc; source: HEK293 cells, pcDNA 3.4, purified (protein A)

Question: Which Kd does the source give for B1 here?
Answer: Its Kd is 20.7 nM.

biological target: T7, E2 glycoprotein of Chikungunya/human/China/GD134/2010, on virions and in infected Vero cells (Chikungunya virus …); test: […]; antibodies 10 ug/mL, […]; settings: one partner purified
T7 construct: also called CHIKV virion; CHIKV virus

Question: Does B2 bind?
Answer: Result: binds

Question: Does B3 bind?
Answer: Result: binds

biological target: B1; test: not given; settings: not given

Question: Does B4 bind?
Answer: Result: binds

Question: Does B5 bind?
Answer: Result: binds

Question: Does B6 bind?
Answer: Result: binds

Question: Does B7 bind?
Answer: Result: binds

Question: Does B8 bind?
Answer: Result: binds

Question: Does B9 bind?
Answer: Result: binds

Question: Does B10 bind?
Answer: Result: binds

Question: Does B11 bind?
Answer: Result: binds

Question: Does B12 bind?
Answer: Result: binds

Question: Does B13 bind?
Answer: Result: binds

Question: Does B14 bind?
Answer: Result: binds

Question: Does B15 bind?
Answer: Result: binds

Question: Does B16 bind?
Answer: Result: binds

Question: Does B17 bind?
Answer: Result: binds

Question: Does B18 bind?
Answer: Result: binds

Question: Does B19 bind?
Answer: Result: binds

Question: Does B20 bind?
Answer: Result: binds

Question: Does B21 bind?
Answer: Result: binds

Biological target: T1, P10-LKIQVSLQIG
Test: ELISA; peptide ELISA: each 10-mer peptide coated at 1 ug/mL in carbonate buffer pH 9.6, 2 ug/mL antibodies, HRP anti-6xHis
Settings: both partners purified

Question: Does B3 bind?
Answer: Result: binds

Biological target: T2, P61-GEEPNYQEEW
Test: as above
Settings: both partners purified

Question: Does B2 bind?
Answer: Result: binds
